Like-named read-outs stand apart in the source and are kept apart here. Numbered stars: 1 amine (or outer) side, 2 acyl side, 3 side chain; on linkers, the order of the positions; unused ones are H or OH. Square brackets hold non-standard residues; d marks the D form. N(2-Aminoethyl)Gly = O=C(CN(CCN[*:3])[*:1])[*:2]; Gly(N-(CH2)3-guanidino) = N=C(N)NCCCNCC(=O)O; Nphe = O=C(O)CNCc1ccccc1; Dap = NC[C@H](N)C(=O)O; Sar = CNCC(=O)O
Key:
[1] = target: T1, mouse melanocortin 4 receptor (mouse, UniProt P56450 1-332); assay: cell-based or functional assay
T1 sequence (P56450 whole entry): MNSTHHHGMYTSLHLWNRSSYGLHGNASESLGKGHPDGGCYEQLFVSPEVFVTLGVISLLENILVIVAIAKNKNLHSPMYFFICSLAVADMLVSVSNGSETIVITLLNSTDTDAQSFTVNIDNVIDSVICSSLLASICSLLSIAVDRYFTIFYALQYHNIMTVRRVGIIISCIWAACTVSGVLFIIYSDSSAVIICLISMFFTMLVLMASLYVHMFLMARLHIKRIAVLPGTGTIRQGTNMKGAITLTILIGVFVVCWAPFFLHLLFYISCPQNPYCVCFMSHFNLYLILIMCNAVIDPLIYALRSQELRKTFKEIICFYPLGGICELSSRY

[2] = target: T2, mouse melanocortin 1 receptor (mouse, UniProt Q01727 1-315); assay: cell-based or functional assay
T2 sequence (Q01727 whole entry): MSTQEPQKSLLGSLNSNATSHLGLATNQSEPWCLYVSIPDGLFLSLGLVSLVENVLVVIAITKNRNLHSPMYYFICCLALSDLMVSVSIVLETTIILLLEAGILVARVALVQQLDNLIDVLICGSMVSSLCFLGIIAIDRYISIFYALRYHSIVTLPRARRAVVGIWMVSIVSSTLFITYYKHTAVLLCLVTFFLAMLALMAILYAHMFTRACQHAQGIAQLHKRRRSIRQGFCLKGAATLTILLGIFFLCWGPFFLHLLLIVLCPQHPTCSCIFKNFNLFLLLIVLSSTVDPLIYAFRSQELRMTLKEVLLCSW

[3] = target: T3, mouse melanocortin 3 receptor (mouse, UniProt P33033 1-323); assay: cell-based or functional assay
T3 sequence (P33033 whole entry): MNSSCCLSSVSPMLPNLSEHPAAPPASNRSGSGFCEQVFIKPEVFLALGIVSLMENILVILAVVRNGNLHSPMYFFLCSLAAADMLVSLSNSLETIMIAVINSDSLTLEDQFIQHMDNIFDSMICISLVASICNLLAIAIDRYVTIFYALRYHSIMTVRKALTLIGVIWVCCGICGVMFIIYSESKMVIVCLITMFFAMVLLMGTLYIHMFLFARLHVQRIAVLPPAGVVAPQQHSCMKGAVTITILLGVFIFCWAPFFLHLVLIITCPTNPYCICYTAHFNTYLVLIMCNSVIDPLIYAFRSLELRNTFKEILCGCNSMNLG

[4] = target: T4, mouse melanocortin 5 receptor (mouse, UniProt P41149 1-325); assay: cell-based or functional assay
T4 sequence (P41149 whole entry): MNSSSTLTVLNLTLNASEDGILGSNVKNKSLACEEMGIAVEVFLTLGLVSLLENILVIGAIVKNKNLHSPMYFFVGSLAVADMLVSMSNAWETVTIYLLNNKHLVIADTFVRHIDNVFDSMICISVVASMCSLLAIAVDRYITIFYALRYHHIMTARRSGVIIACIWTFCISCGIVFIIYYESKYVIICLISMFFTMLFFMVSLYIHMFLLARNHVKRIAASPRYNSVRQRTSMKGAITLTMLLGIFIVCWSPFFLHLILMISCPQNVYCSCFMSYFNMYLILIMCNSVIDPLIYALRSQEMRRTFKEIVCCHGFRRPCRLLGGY

[5] = target: T2, mouse melanocortin 1 receptor; assay: 125I-NDP-MSH competition, HEK293 cells
[6] = target: T5, human melanocortin 4 receptor (human, UniProt P32245 1-332); assay: 125I-NDP-MSH competition; fold vs SEQ ID NO: 1 control
T5 construct: whole, on cells; the assays used the receptor on HEK293 cells; also called hMC4R
T5 sequence (P32245 whole entry): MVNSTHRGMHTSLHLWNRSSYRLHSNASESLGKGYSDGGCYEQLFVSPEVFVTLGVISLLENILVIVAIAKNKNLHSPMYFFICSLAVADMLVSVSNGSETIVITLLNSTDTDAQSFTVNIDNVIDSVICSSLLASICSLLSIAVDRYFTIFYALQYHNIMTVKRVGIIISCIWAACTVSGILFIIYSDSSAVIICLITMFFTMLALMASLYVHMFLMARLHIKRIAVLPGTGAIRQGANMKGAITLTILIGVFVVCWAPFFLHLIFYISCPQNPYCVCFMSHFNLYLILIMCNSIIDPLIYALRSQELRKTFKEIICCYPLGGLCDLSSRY

[7] = target: T1, mouse melanocortin 4 receptor; assay: as above
[8] = target: T5, human melanocortin 4 receptor; assay: 125I-NDP-MSH competition, HEK293 cells
[9] = target: T5, human melanocortin 4 receptor; assay: cell-based or functional assay
[10] = target: T1, mouse melanocortin 4 receptor; assay: 125I-NDP-MSH competition, HEK293 cells
[11] = target: T3, mouse melanocortin 3 receptor; assay: cell-based or functional assay; remark: listed apart in the source
[12] = target: T1, mouse melanocortin 4 receptor; assay: cell-based or functional assay; remark: listed apart in the source
[13] = target: T2, mouse melanocortin 1 receptor; assay: cell-based or functional assay; remark: listed apart in the source
[14] = target: T4, mouse melanocortin 5 receptor; assay: cell-based or functional assay; remark: listed apart in the source
[15] = target: T4, mouse melanocortin 5 receptor; assay: 125I-NDP-MSH competition, HEK293 cells
[16] = target: T3, mouse melanocortin 3 receptor; assay: 125I-NDP-MSH competition, HEK293 cells
[17] = target: T3, mouse melanocortin 3 receptor; assay: 125I-NDP-MSH competition; fold vs SEQ ID NO: 2 control
[18] = target: T1, mouse melanocortin 4 receptor; assay: as above
[19] = target: T2, mouse melanocortin 1 receptor; assay: as above
[20] = target: T5, human melanocortin 4 receptor; assay: as above

B1: MDE7-26-1c (peptide)
peptide: cyclo(P[Gly(N-(CH2)3-guanidino)]FFNAF[dP])
SMILES: C[C@@H]1NC(=O)[C@H](CC(N)=O)NC(=O)[C@H](Cc2ccccc2)NC(=O)[C@H](Cc2ccccc2)NC(=O)CN(CCCNC(=N)N)C(=O)[C@@H]2CCCN2C(=O)[C@H]2CCCN2C(=O)[C@H](Cc2ccccc2)NC1=O
[1]
  pA2 (Schild analysis, agonist NDP-MSH, cAMP): < 5.5
[2]
  EC50 (cAMP partial agonist): 3.1 µM
  Partial Agonist, percent of NDP-MSH (cAMP): 50%

## cyclo(PRF[Nphe]NAF[dP]) [MDE9-88c]
[1]
  pA2 (Schild analysis, agonist NDP-MSH, cAMP): 8.4
[2]
  EC50 (cAMP partial agonist): 5.6 µM
  Partial Agonist, percent of NDP-MSH (cAMP): 70%

## cyclo(PRFFNA[Nphe][dP]) [MDE7-26-5c]
[3]
  percent maximal stimulatory response at 100 µM (cAMP): 60%
[1]
  pA2 (Schild analysis, agonist NDP-MSH, cAMP): < 5.5
[2]
  percent maximal stimulatory response at 100 µM (cAMP): 85%

B2: MDE7-26-4c (peptide)
peptide: cyclo(PRFFN[Sar]F[dP])
SMILES: CN1CC(=O)N[C@@H](Cc2ccccc2)C(=O)N2CCC[C@@H]2C(=O)N2CCC[C@H]2C(=O)N[C@@H](CCCNC(=N)N)C(=O)N[C@@H](Cc2ccccc2)C(=O)N[C@@H](Cc2ccccc2)C(=O)N[C@@H](CC(N)=O)C1=O
[1]
  pA2 (Schild analysis, agonist NDP-MSH, cAMP): < 5.5
[2]
  EC50 (cAMP agonist): 1 µM

## cyclo(PR[Nphe]FNAF[dP]) [MDE9-77c]
[1]
  pA2 (Schild analysis, agonist NDP-MSH, cAMP): < 5.5
[2]
  EC50 (cAMP agonist): 0.24 µM

## PRFFXAFP (head-to-tail cyclic; NPhe (N-benzylglycine) at 3; Dap at 5; DPro at 8) [MDE9-32c]
[3]
  EC50 (cAMP agonist): > 100 µM
  pA2 (Schild analysis, agonist NDP-MSH, cAMP): 6.9
[4]
  EC50 (cAMP partial agonist): 0.55 µM
  Partial Agonist, percent of NDP-MSH (cAMP): 70%
[2]
  EC50 (cAMP partial agonist): 0.11 µM
  Partial Agonist, percent of NDP-MSH (cAMP): 80%

B3: 1 (MDE 6-82-3c) (peptide)
peptide: cyclo(PRFFNAF[dP])
modifications: also: assayed as TFA salt
notes: AgRP 111-116 loop cyclized through DPro-Pro; Asn5 parent scaffold; assayed as TFA salt; also called Compound 1; c[Pro-Arg-Phe-Phe-Asn-Ala-Phe-DPro]
[5]
  IC50: 9 µM

B4: ZMK 2-110 (peptide)
peptide: cyclo(PRYFNAF[dP])
notes: Phe112Tyr SNP in the Asn scaffold; also called c[Pro-Arg-Tyr-Phe-Asn-Ala-Phe-DPro]
[6]
  Fold Diff: 2000 fold
[7]
  Fold Diff: 100 fold
[8]
  IC50: 14.3 µM
[9]
  pA2 (Schild analysis, agonist NDP-MSH, cAMP): 6.5
[10]
  IC50: 2 µM
[11]
  EC50 (cAMP agonist): > 100 µM
  pA2 (Schild analysis, agonist NDP-MSH, cAMP): 5.8
[12]
  EC50 (cAMP agonist): > 100 µM
  pA2 (Schild analysis, agonist NDP-MSH, cAMP): 6.1
[13]
  EC50 (cAMP agonist): > 100 µM

B5: ZMK 2-96 (peptide)
peptide: cyclo(PHFFNAF[dP])
notes: Arg111His SNP in the Asn scaffold; also called c[Pro-His-Phe-Phe-Asn-Ala-Phe-DPro]
[6]
  Fold Diff: 300 fold
[7]
  Fold Diff: 300 fold
[8]
  IC50: 22 µM
[9]
  pA2 (Schild analysis, agonist NDP-MSH, cAMP): 5.8
[10]
  IC50: 6.7 µM
[11]
  EC50 (cAMP agonist): > 100 µM
  pA2 (Schild analysis, agonist NDP-MSH, cAMP): < 5
[12]
  EC50 (cAMP agonist): > 100 µM
  pA2 (Schild analysis, agonist NDP-MSH, cAMP): 5.3
[14]
  EC50 (cAMP agonist): > 100 µM
[13]
  percent maximal stimulatory response at 100 µM (cAMP): 23%

## PRFFXAFP (head-to-tail cyclic; NPhe (N-benzylglycine) at 4; Dap at 5; DPro at 8) [MDE9-93c]
[3]
  EC50 (cAMP agonist): > 100 µM
  pA2 (Schild analysis, agonist NDP-MSH, cAMP): 7.1
[4]
  Inverse Agonist, percent decrease from basal (cAMP): -10%
[2]
  EC50 (cAMP partial agonist): 2.7 µM
  Partial Agonist, percent of NDP-MSH (cAMP): 60%

## PRFFXAFP (head-to-tail cyclic; Dap at 5; NAla (N-methylglycine) at 6; DPro at 8) [MDE8-108-6c]
[3]
  EC50 (cAMP agonist): > 100 µM
  pA2 (Schild analysis, agonist NDP-MSH, cAMP): 5.6
[1]
  pA2 (Schild analysis, agonist NDP-MSH, cAMP): 6.1
[4]
  EC50 (cAMP agonist): > 100 µM
[2]
  EC50 (cAMP agonist): > 100 µM

B6: MDE8-108-3c (peptide)
peptide: PRFFXAFP
modifications: head-to-tail cyclic; NArg (N-(3-guanidino-propyl)-glycine) at 2; Dap at 5; DPro at 8
[3]
  EC50 (cAMP agonist): > 100 µM
  pA2 (Schild analysis, agonist NDP-MSH, cAMP): 5.9
[4]
  EC50 (cAMP agonist): > 100 µM
[2]
  EC50 (cAMP agonist): > 100 µM

## PRFFXAFP (head-to-tail cyclic; Dap at 5; NPhe (N-benzylglycine) at 7; DPro at 8) [MDE8-108-7c]
[3]
  EC50 (cAMP agonist): > 100 µM
[1]
  pA2 (Schild analysis, agonist NDP-MSH, cAMP): 6.6
[4]
  Inverse Agonist, percent decrease from basal (cAMP): -10%
[2]
  EC50 (cAMP agonist): > 100 µM

B7: 2 (MDE 6-82-1c) (peptide)
peptide: PRFFXAFP
modifications: head-to-tail cyclic; Dap (diaminopropionic acid) at 5; DPro at 8
notes: Dap5 parent scaffold; assayed as TFA salt; also called Compound 2; c[Pro-Arg-Phe-Phe-Dap-Ala-Phe-DPro]
[3]
  pA2 (Schild analysis, agonist NDP-MSH, cAMP): 6.5
  percent maximal stimulatory response at 100 µM (cAMP): 20%
[4]
  Inverse Agonist, percent decrease from basal (cAMP): -10%
[2]
  percent maximal stimulatory response at 100 µM (cAMP): 36%
[15]
  IC50: 1.7 µM
[5]
  IC50: 5.2 µM

B8: ZMK 2-85 (peptide)
peptide: cyclo(PRFF[Dap]VF[dP])
notes: Ala115Val SNP in the Dap scaffold; also called c[Pro-Arg-Phe-Phe-Dap-Val-Phe-DPro]
[8]
  IC50: 0.0322 µM
[9]
  pA2 (Schild analysis, agonist NDP-MSH, cAMP): 7.6
[16]
  IC50: 10 µM
[15]
  IC50: 2.7 µM
[5]
  IC50: 8 µM
[11]
  pA2 (Schild analysis, agonist NDP-MSH, cAMP): 6.1
  percent maximal stimulatory response at 100 µM (cAMP): 27%
[12]
  percent maximal stimulatory response at 100 µM (cAMP): 37%
[14]
  EC50 (cAMP agonist): > 100 µM
  pA2 (Schild analysis, agonist NDP-MSH, cAMP): 6.3
[13]
  percent maximal stimulatory response at 100 µM (cAMP): 79%

B9: ZMK 3-20 (peptide)
peptide: cyclo(PCFF[Dap]AF[dP])
notes: Arg111Cys SNP in the Dap scaffold; also called c[Pro-Cys-Phe-Phe-Dap-Ala-Phe-DPro]
[17]
  Fold Diff: 15 fold
[18]
  Fold Diff: 5200 fold
[19]
  Fold Diff: 6 fold
[20]
  Fold Diff: 2100 fold
[8]
  IC50: 15.7 µM
[9]
  pA2 (Schild analysis, agonist NDP-MSH, cAMP): < 5
[16]
  IC50: 49 µM
[10]
  IC50: 10 µM
[5]
  IC50: 33 µM
[11]
  pA2 (Schild analysis, agonist NDP-MSH, cAMP): < 5
  percent maximal stimulatory response at 100 µM (cAMP): 29%
[12]
  pA2 (Schild analysis, agonist NDP-MSH, cAMP): < 5
  percent maximal stimulatory response at 100 µM (cAMP): 42%
[14]
  EC50 (cAMP agonist): > 100 µM
[13]
  EC50 (cAMP agonist): 4 µM

## cyclo(PRFF[N(2-Aminoethyl)Gly]AF[dP]) [MDE9-111c]
[3]
  EC50 (cAMP agonist): > 100 µM
  pA2 (Schild analysis, agonist NDP-MSH, cAMP): 6.9
[4]
  Inverse Agonist, percent decrease from basal (cAMP): -10%
[2]
  percent maximal stimulatory response at 100 µM (cAMP): 60%
